Experimental findings from patent publication US20230037911A1 (SHANGHAI HENLIUS BIOTECH, published 2023) are described below.

Assay [1] concerns the target T1, human TIGIT stably expressed on cells (Jurkat; 293T) (human, UniProt Q495A1 22-244).
T1 construct: the expression vector's insert is not described further; also called h-TIGIT; human TIGIT transfected Jurkat cells
T1 sequence: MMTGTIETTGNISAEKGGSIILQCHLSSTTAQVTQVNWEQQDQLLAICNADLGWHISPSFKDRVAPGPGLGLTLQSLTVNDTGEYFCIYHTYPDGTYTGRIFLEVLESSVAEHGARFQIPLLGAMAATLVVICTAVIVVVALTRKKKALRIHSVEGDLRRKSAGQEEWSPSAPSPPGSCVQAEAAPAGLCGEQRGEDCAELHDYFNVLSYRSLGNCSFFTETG
In words: flow cytometry on h-TIGIT stably transfected Jurkat cells; anti-h-IgG Fc AlexaFluor488 secondary. In general terms: A flow cytometer gives signals particle by particle.

Assay [2] concerns the target T2, recombinant protein of his-tagged human TIGIT ECD (human, UniProt Q495A1 22-138).
T2 construct: Used in Octet assays; also called h-TIGIT ECD (his-tagged); not shown: his tag
T2 sequence: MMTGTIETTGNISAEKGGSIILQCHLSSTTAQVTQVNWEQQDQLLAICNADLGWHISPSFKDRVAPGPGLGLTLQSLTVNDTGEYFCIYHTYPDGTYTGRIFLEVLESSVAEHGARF
The experiment in a line: Octet biolayer interferometry; BsAb loaded on the sensor, his-tagged h-TIGIT ECD at different concentrations (not given), then h-PDL1 ECD. As for the experimental part: The sensors were loaded with BsAbs and then injected with different concentrations of recombinant protein of h-TIGIT ECD (his-tagged). After association of BsAbs with h-TIGIT, the sensors were injected again with different concentrations of recombinant protein of h-PDL1 ECD (his-tagged). […] Y axis represents association/disassociation and Rmax, X axis represents time in second.
(In general: BLI is a label-free optical method that tracks binding on a fibre tip over time.)

In assay [3] the target is T1, human TIGIT stably expressed on cells …. The experiment in a line: flow cytometry on Jurkat cells stably expressing h-TIGIT; VHH samples heated at 25 to 70 °C for 60 min (thermostability); concentration not given. As for the experimental part:
(§1) FIGS. 6A and 6B depict thermostability tested for representative clones. The VHH antibody samples were heated from 25 to 70° C. for 60 min. Binding of heated samples to human TIGIT was examined using ELISA or whole cell binding. […] Y axis represents OD450 obtained from the ELISA assay. X axis represents temperature for the treatment. […] Y axis represents percentage of binding to h-TIGIT. X axis represents temperature for the treatment.

Assay [4] concerns the target T3, recombinant human TIGIT extra cellular domain (ECD) protein (human, UniProt Q495A1 22-138).
T3 construct: Purchased protein; it begins with the signal peptide; also called h-TIGIT ECD; human TIGIT ECD
T3 sequence: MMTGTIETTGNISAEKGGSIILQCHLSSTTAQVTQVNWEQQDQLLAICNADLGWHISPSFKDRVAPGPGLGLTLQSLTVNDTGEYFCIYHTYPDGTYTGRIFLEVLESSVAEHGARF
In words: ELISA on h-TIGIT ECD; VHH samples heated at 25 to 70 °C for 60 min (thermostability); concentration not given. As for the experimental part: as §1
In general terms: In an ELISA, binding on a coated surface is turned into a signal by an enzyme label.

The target of assay [5] is T1, human TIGIT stably expressed on cells …. The experiment in a line: whole cell binding.
Assay [6] has as its target T3, recombinant human TIGIT extra cellular …. In words: blocking ELISA, PVR as competitor.

B1: anti-TIGIT x anti-PDL1 bispecific antibody LCC (VHH 2A3 fused to the C-terminal of the anti-PDL1 light chain) (bispecific antibody, human IgG1, lambda)
heavy: not shown
light: QSVVTQPPPVSGAPGQRVTISCTGSSSNVGAGYDVHWYQQLPGTAPKLLIYGNSQRSSGVPDRFSGSKSGTSASLAITGLQAEDEADYYCQTYDSSGSARVVFGGGTKLTVLGQPKAAPSVTLFPPSSEELQANKATLVCLISDFYPGAVTVAWKADSSPVKAGVETTTPSKQSNNKYAASSYLSLTPEQWKSHKSYSCQVTHEGSTVEKTVAPTECSGSGGSGGSGGSGQVQLVESGGGVVQPGRSLRLSCAASGGSFSSYPMGWFRQAPGKERESVAAISSDMRFTYYADSVKGRFTISRDNSKNTLYLQMNSLRAEDTAVYYCAARDSGVGYYSRAQWYDYWGQGTLVTVSS
notes: likely a printing error; also called aTIGITx aPDL1-LCC
For the molecule B1, the binding result in assay [1] and in assay [2] was “binds” throughout.

B2: 1A8 VHH (VHH)
VHH: QVQLVESGGGVVQPGRSLRLSCAASGPSFSSYPMGWFRQAPGKERESVAAISSRGRFTYYADSVKGRFTISRDNSKNTLYLQMNSLRAEDTAVYYCAARDSGSGYYSRAQWYDYWGQGTLVTVSS
notes: VHH in bacterial supernatant
For the molecule B2, the binding result in assay [3] and in assay [4] was “binds” in each case.

B3: 6F12 VHH (VHH)
VHH: QVQLVESGGGVVQPGRSLRLSCAASGPSFTSYPMGWFRQAPGKERESVAAISSDGRFKYYADSVKGRFTISRDNSKNTLYLQMNSLRAEDTAVYYCAAEDSGSGYYSRAQWYDYWGQGTLVTVSS
notes: VHH in bacterial supernatant
On to B3, for which the binding result in assay [3] and in assay [4] was “binds” each time.

B4: 2A3 ML_DE (2A3 with M to L in CDR2 and D to E in CDR3) (VHH)
VHH: QVQLVESGGGVVQPGRSLRLSCAASGGSFSSYPMGWFRQAPGKERESVAAISSDLRFTYYADSVKGRFTISRDNSKNTLYLQMNSLRAEDTAVYYCAARESGVGYYSRAQWYDYWGQGTLVTVSS
As to B4, the binding result in assay [5] is recorded as “binds”.

B5: 2A3 ML (2A3 with methionine to leucine in CDR2) (VHH)
VHH: QVQLVESGGGVVQPGRSLRLSCAASGGSFSSYPMGWFRQAPGKERESVAAISSDLRFTYYADSVKGRFTISRDNSKNTLYLQMNSLRAEDTAVYYCAARDSGVGYYSRAQWYDYWGQGTLVTVSS
Turning to B5, in assay [5], the binding result was “binds”.

B6: 7F6 VHH (VHH)
VHH: QVQLVESGGGVVQPGRSLRLSCAASGPMFSSYPMGWFRQAPGKERESVAAISSDPRFTYYADSVKGRFTISRDNSKNTLYLQMNSLRAEDTAVYYCAARDSGSGYYSRAQWYDYWGQGTLVTVSS
notes: VHH in bacterial supernatant
As for B6, the binding result in assay [3] and in assay [4] was “binds” each time.

B7: 2A3 MI (2A3 with methionine to isoleucine in CDR2) (VHH)
VHH: QVQLVESGGGVVQPGRSLRLSCAASGGSFSSYPMGWFRQAPGKERESVAAISSDIRFTYYADSVKGRFTISRDNSKNTLYLQMNSLRAEDTAVYYCAARDSGVGYYSRAQWYDYWGQGTLVTVSS
For B7, the binding result in assay [5] is “binds”.

B8: 15A5 VHH (VHH)
VHH: QVQLVESGGGLVQAGGSLRLSCAASERTFSSFAMGWFRQAPGKEREVVAAIDPSGRYIYYKDSVKGRFTMSRDNAKSTVYLQMNSLKPDDTARYYCAARIRGEGYYTRSSFYHYWGQGTQVTVSS
notes: VHH in bacterial supernatant
For the molecule B8, in assay [6], the “inhibition of PVR binding to h-TIGIT” value is > 90%.

B9: 13H11 VHH (VHH)
VHH: QVQLVESGGGLVQAGGSLRLSCAASGLTFSMYAMGWFRQGPGKERESVAAISSDGRFTYYAASVKGRFTISKDNAKSAAFLQMNSLKPEDTAVYYCAARDSGSGYYSRAQWYDYWGQGTQVTVSS
notes: VHH in bacterial supernatant
Take B9: the “inhibition of PVR binding to h-TIGIT” value in assay [6] was > 90%.

B10: 2B7 VHH (VHH)
VHH: QVQLVESGGGLVQAGGSLRLACAASGRTFSSYPMGWFRQGPGKERESVAAISSDGRFTYYAASVKGRFTISKDNAKSAAFLQMNSLKPEDTAVYYCAARDSGSGYYSRAQWYDYWGQGTQVTVSS
notes: VHH in bacterial supernatant
Regarding B10, the “inhibition of PVR binding to h-TIGIT” value in assay [6] was > 90%.

B11: 1G1 VHH (VHH)
VHH: QVQLVESGGGLVQAGDSLRLSCVASGPSFSSYPMGWFRQGPGKERESVAAISSDGRFTYYAASVKGRFTISKDNAKSAAFLQMNSLKPEDTAVYYCAARDSGSGYYSRAQWYDYWGQGTLVTVSS
notes: VHH in bacterial supernatant
As for B11, in assay [6], the “inhibition of PVR binding to h-TIGIT” value was > 90%.

B12: 3F10 VHH (VHH)
VHH: QVQLVESGGGLVQAGGSLRLSCASSEHTFSNFPMGWFRQAPGKERNVVAAIDSSGRLTYYADSVKGRFTISKDNAKSTVYLQMNSLKSEDTARYYCAARTGGVGYYSRSSFYNYWGQGTLVTVSS
notes: VHH in bacterial supernatant
On to B12, for which the “inhibition of PVR binding to h-TIGIT” value in assay [6] was > 90%.

B13: 3G6 VHH (VHH)
VHH: QVQLVESGGGLVQAGGSLSLSCAASGSIFGISVMGWYRQAPGEQRDLVATLTRAGLTTYGDSVKGRFSISRDSAKNTVYLQMNNLKPEDTAVYYCHANIMESAASTFGRYWGQGTQVTVSS
notes: VHH in bacterial supernatant
B13: in assay [6], the “inhibition of PVR binding to h-TIGIT” value is > 90%.

B14: 2B10 VHH (VHH)
VHH: QVKLEESGGGLVQTGDSLRLSCAASSRIFRRYAMGWFRQAPGKEREFVAAITWSGASTTYTDSVKGRFTISRDSAENTTYLQMTSLRPEDTAVYYCAADPWGSVIVGTAEYEYWGQGTLVTVSS
notes: VHH in bacterial supernatant
As to B14, in assay [6], the “inhibition of PVR binding to h-TIGIT” value was > 90%.

B15: 1C12 VHH (VHH)
VHH: QVQLVESGGGLVQTGDSLRLSCAASSRIFSRYGMGWFRQAPGKEREFVAAISWNGASTTYTDSVKGRFTISRDSAENTTYLQINSLRPEDTAVYYCAADPWGAVKLGTAEYEYWGQGTQVTVSS
notes: VHH in bacterial supernatant
Consider B15, for which the “inhibition of PVR binding to h-TIGIT” value in assay [6] was > 90%.

B16: anti-TIGIT x anti-PDL1 bispecific antibody HCC (VHH 2A3 fused to the C-terminal of the anti-PDL1 heavy chain) (bispecific antibody, human IgG1, lambda)
heavy: not shown
light: QSVVTQPPPVSGAPGQRVTISCTGSSSNVGAGYDVHWYQQLPGTAPKLLIYGNSQRSSGVPDRFSGSKSGTSASLAITGLQAEDEADYYCQTYDSSGSARVVFGGGTKLTVLGQPKAAPSVTLFPPSSEELQANKATLVCLISDFYPGAVTVAWKADSSPVKAGVETTTPSKQSNNKYAASSYLSLTPEQWKSHKSYSCQVTHEGSTVEKTVAPTECS
notes: also called aTIGITx aPDL1-HCC; BsAb HCC
As to B16, the binding result in assay [1] and in assay [2] was “binds” throughout.

B17: anti-TIGIT x anti-PDL1 bispecific antibody HCN (VHH 2A3 fused to the N-terminal of the anti-PDL1 heavy chain) (bispecific antibody, human IgG1, lambda)
heavy: not shown
light: QSVVTQPPPVSGAPGQRVTISCTGSSSNVGAGYDVHWYQQLPGTAPKLLIYGNSQRSSGVPDRFSGSKSGTSASLAITGLQAEDEADYYCQTYDSSGSARVVFGGGTKLTVLGQPKAAPSVTLFPPSSEELQANKATLVCLISDFYPGAVTVAWKADSSPVKAGVETTTPSKQSNNKYAASSYLSLTPEQWKSHKSYSCQVTHEGSTVEKTVAPTECS
notes: also called aTIGITx aPDL1-HCN; BsAb HCN
Turning to B17, the binding result in assay [1] and in assay [2] was “binds” in each case.

B18: 3G7 VHH (VHH)
VHH: QVQLVESGGGLVQAGDSLRLSCEASGRTLSTYTMGWFRRAPGKEREFVGLAWPSPSTYVVDSVKGRFTISRDNAKNTIYLQMNSLKPEDTAIYYCAADYKSLTQSWLNAALDYWGQGTQVTVSS
notes: VHH in bacterial supernatant
As for B18, the “inhibition of PVR binding to h-TIGIT” value in assay [6] is > 90%.

B19: anti-TIGIT x anti-PDL1 bispecific antibody LCN (VHH 2A3 fused to the N-terminal of the anti-PDL1 light chain) (bispecific antibody, human IgG1, lambda)
heavy: not shown
light: QVQLVESGGGVVQPGRSLRLSCAASGGSFSSYPMGWFRQAPGKERESVAAISSDMRFTYYADSVKGRFTISRDNSKNTLYLQMNSLRAEDTAVYYCAARDSGVGYYSRAQWYDYWGQGTLVTVSSGSGGSGGSGGSGQSVVTQPPPVSGAPGQRVTISCTGSSSNVGAGYDVHWYQQLPGTAPKLLIYGNSQRSSGVPDRFSGSKSGTSASLAITGLQAEDEADYYCQTYDSSGSARVVFGGGTKLTVLGQPKAAPSVTLFPPSSEELQANKATLVCLISDFYPGAVTVAWKADSSPVKAGVETTTPSKQSNNKYAASSYLSLTPEQWKSHKSYSCQVTHEGSTVEKTVAPTECS
notes: also called aTIGITx aPDL1-LCN
For B19, the binding result in assay [1] and in assay [2] was “binds” throughout.
